Experimental data taken from patent US20030177526A1 (PLANT HEALTH CARE, published 2003).

B2: LexA alone (empty bait vector pVJL11) (other)
chain: MKALTARQQEVFDLIRDHISQTGMPPTRAEIAQRLGFRSPNAAEEHLKALARKGVIEIVSGASRGIRLLQEEEEGLPLVGRVAAGEPLLAQQHIEGHYQVDPSLFKPNADFLLRVSGMSMKDIGIMDGDLLAVHKTQDVRNGQVVVARIDDEVTVKRLKKQGNKVELLPENSEFKPIVVDLRQQSFTIEGLAVGVIRNGDWL
notes: Control

Key:
[1] = target: T1, LexA-harpin fusion (HrpN of Erwinia amylovora in bait vector pVJL11) (Erwinia amylovora, UniProt Q01099 1-403); assay: yeast two-hybrid, lacZ and HIS3 reporters
T1 construct: range 1-403; also called HrpN-pVJL11; lexA-harpin fusion protein; not shown: prokaryotic LexA protein (DNA-BD encoded in bait vector pVJL11)
T1 sequence: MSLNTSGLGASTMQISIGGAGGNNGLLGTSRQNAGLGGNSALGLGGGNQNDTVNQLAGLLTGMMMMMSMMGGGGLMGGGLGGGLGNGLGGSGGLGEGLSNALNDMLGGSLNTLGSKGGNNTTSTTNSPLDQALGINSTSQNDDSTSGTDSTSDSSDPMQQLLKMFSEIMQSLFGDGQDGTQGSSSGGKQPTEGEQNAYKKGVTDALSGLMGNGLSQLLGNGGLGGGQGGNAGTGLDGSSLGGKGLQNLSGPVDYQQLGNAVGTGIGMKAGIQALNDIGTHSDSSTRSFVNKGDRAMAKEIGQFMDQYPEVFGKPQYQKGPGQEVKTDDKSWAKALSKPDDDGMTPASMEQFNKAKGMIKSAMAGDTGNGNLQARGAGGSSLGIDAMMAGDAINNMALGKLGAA

[2] = target: T2, LexA-AtHrBP1p fusion (AtHrBP1 in bait vector pVJL11) (Arabidopsis thaliana, UniProt Q9LW57 1-284); assay: yeast two-hybrid, lacZ and HIS3 reporters
T2 construct: Yeast two-hybrid bait, opposite orientation; also called AtHrBP1-pVJL11; AtHrBP1p fused with the DNA-BD; not shown: prokaryotic LexA protein (DNA-BD encoded in bait vector pVJL11)
T2 sequence: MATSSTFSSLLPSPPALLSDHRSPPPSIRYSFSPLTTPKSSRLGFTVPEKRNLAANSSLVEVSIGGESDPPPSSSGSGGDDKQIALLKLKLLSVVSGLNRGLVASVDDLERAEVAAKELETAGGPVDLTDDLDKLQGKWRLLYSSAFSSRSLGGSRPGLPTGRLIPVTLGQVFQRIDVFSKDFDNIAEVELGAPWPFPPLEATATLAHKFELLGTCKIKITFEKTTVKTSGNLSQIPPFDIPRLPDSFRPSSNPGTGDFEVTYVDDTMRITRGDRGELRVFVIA

[3] = target: T3, GAL4 activation domain-harpin fusion (hrpN in prey vector pGAD GH) (yeast; Erwinia amylovora, UniProt Q01099 1-403); assay: yeast two-hybrid, lacZ and HIS3 reporters
T3 construct: range 1-403; also called hrpN-pGAD GH
T3 sequence: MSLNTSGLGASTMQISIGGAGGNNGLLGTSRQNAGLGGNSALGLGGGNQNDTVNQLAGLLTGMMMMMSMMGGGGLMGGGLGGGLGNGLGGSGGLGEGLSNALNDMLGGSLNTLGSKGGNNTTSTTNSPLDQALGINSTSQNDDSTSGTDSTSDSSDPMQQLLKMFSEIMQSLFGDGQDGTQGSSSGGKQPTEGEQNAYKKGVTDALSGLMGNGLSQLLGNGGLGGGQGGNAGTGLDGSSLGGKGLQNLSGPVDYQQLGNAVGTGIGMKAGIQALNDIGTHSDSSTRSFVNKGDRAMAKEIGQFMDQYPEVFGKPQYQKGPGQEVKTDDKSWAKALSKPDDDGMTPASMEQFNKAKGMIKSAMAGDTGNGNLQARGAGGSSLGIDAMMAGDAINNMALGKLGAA

[4] = target: T4, GAL4 activation domain-AtHrBP1p fusion (longest 1 kb cDNA insert in pGAD 10) (yeast; Arabidopsis thaliana, UniProt Q9LW57 1-284); assay: yeast two-hybrid, lacZ and HIS3 reporters
T4 construct: Yeast two-hybrid prey; also called AtHrBP1-AD fusion prey
T4 sequence: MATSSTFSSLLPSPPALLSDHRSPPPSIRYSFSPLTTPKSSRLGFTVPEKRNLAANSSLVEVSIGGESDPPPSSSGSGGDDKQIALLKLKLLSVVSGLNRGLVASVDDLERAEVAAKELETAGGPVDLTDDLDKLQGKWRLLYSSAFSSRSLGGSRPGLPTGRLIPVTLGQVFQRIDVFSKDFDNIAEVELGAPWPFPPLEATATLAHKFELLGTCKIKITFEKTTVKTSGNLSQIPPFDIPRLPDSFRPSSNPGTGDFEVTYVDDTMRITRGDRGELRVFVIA

[5] = target: T1, LexA-harpin fusion (HrpN of Erwinia …); assay: yeast two-hybrid, harpin as bait
[6] = target: T5, LexA fused to harpin 137-180 amino acids (Erwinia amylovora, UniProt Q01099 137-180); assay: yeast two-hybrid, harpin fragment as bait
T5 construct: also called harpin fragment that contains the second HR domain; not shown: prokaryotic LexA protein (bait vector)
T5 chain (looked up): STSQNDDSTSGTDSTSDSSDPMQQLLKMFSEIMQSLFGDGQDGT

[7] = target: T6, LexA fused to harpin 210-403 amino acids (Erwinia amylovora, UniProt Q01099 210-403); assay: yeast two-hybrid, lacZ and HIS3 reporters
T6 construct: range 210-403; not shown: prokaryotic LexA protein (bait vector)
T6 sequence: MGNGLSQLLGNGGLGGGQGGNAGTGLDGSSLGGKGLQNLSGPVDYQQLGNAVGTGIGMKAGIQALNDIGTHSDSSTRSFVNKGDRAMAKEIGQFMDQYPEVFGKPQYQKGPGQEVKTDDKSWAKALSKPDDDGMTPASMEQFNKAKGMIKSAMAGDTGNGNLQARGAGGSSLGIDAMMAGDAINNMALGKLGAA

[8] = target: B2; assay: yeast two-hybrid, lacZ and HIS3 reporters

B1: GAL4 activation domain alone (empty prey vector pGAD GH) (other)
chain: ANFNQSGNIADSSLSFTFTNSSNGPNLITTQTNSQALSQPIASSNVHDNFMNNEITASKIDDGNNSKPLSPGWTDQTAYNAFGITTGMFNTTTMDDVYNYLFDDEDTPPNPKKE
notes: Control
- binding result [1]: no binding
- binding result [2]: no binding

Binder: B2
- binding result [3]: no binding
- binding result [4]: no binding

B3: GAL4 activation domain-rice HrBP1p (R6p) fusion (receptor)
chain: VAALKVKLLSAVSGLNRGLAGSQEDLDRADAAARELEAAAGGGPVDLERDVDKLQGRWRLVYSSAFSSRTLGGSRPGPPTGRLLPITLGQVFQRIDVVSKDFDNIVDVELGAPWPLPPVELTATLAHKFEIIGTSSIKITFDKTTVKTKGNLSQLPPLEVPRIPDNLRPPSNTGSGEFEVTYLDGDTRITRGDRGELRVFVIS
notes: Partial cDNA clone from a yeast two-hybrid screen with harpin as bait; not full length
- binding result [5]: binds
- binding result [6]: binds
- binding result [7]: no binding
- binding result [8]: no binding
